{"source": "IntAct's records for PubMed 21216997", "key": {"[1]": {"target": "ftsz_ecoli ftsZ (UniProt P0A9A6)", "sequence (P0A9A6 whole entry)": "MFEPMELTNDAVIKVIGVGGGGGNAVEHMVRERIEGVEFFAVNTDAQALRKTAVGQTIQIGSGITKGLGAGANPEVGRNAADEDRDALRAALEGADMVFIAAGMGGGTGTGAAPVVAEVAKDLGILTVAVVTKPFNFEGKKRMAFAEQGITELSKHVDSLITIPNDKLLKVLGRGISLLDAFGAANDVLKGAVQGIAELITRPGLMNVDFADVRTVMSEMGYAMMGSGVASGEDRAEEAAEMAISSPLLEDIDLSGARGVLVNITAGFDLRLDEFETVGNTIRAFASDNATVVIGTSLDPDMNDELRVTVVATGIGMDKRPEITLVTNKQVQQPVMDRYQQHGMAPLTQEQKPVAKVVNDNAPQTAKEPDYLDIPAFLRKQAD"}, "[2]": {"target": "ftsz_ecoli ftsZ (UniProt P0A9A6)", "remark": "listed apart in the source"}}}
{"substance": "Cell division protein ZapC (Escherichia coli (strain K12)), P75862 L22P", "values": [{"measurement": "effect of a mutation on the interaction", "setting": "[1]", "result": "decreasing interaction strength"}, {"measurement": "effect of a mutation on the interaction", "setting": "[2]", "result": "disrupting interaction"}]}
